# Ends that are not written are not given here.
# Experiments:
# [1] = target: T1, human furin (human, UniProt P09958); experiment: other, pH 7.0, 37C
# [2] = target: trypsin
# [3] = target: T1, human furin; experiment: other, pH 7.0, 37C; remark: listed apart in the source
# T1 sequence (P09958 108-715): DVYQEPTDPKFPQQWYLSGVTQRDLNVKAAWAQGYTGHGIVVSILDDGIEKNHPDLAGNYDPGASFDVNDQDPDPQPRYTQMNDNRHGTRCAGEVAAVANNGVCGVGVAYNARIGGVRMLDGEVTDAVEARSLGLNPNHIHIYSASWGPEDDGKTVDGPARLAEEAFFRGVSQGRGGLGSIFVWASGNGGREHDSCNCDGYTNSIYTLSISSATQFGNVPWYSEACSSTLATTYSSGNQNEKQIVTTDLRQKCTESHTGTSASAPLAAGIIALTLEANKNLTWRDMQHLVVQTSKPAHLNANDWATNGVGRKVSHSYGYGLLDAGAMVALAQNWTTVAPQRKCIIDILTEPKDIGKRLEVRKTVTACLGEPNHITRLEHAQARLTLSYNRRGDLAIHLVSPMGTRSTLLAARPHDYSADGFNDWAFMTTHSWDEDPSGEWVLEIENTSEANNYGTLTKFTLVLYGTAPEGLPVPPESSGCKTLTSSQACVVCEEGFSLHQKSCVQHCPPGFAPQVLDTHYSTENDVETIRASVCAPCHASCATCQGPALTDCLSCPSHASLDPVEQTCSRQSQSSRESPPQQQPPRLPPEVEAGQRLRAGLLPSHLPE
Binder,Ki [1] [µM],Ki [2] [µM],binding result [3]
"KAAK (not fully specified (N-terminus, C-terminus); printed as C16-KAAK-C16) [C16-KAAK-C16]",0.97,,
"Lys-Gly-Lys (not fully specified (N-terminus, C-terminus); printed as C16-KGK-C16) [C16-KGK-C16]",,41.6,
"KAAAK (not fully specified (N-terminus, C-terminus); printed as C16-KAAAK-C16) [C16-KAAAK-C16]",1.72,40.3,
"Lys-Ala-Lys (not fully specified (N-terminus, C-terminus); printed as C16-KAK-C16) [C16-KAK-C16]",0.54,15.2,

# Now from value to binder:
Ki [1] [µM],Ki [2] [µM],binding result [3],Binder
1.75,,,KAAAAK (not fully specified) [C16-KAAAAK-C16]
,84.7,no binding,"Lys-Lys (not fully specified (N-terminus, C-terminus); printed as C16-KK-C16) [C16-KK-C16]"
,11.1,,KGGGK (not fully specified) [C16-KGGGK-C16]

# Reference: US20190255141 (published 2019)
